Results as given in patent publication US20180243244A1.
Read-outs that look alike come from different tables or passages of the source. No end group written: not given here.

How the values were obtained:
[1] = target: p62 (Homo sapiens (Human)), Q13501; assay: X-peptide pull down of in vitro transcribed and translated p62, Western blot
p62-D3-GST, Q13501 [2] = target: p62-D3-GST, Q13501
p62-D3-GST, Q13501 [3] = target: p62-D3-GST, Q13501; remark: listed apart in the source
p62-D3-GST, Q13501 [4] = assay: SPR (Biacore), legend of FIG. 6

Binder | efficiency of precipitating p62 [1] [%] | Kd (p62-D3-GST, Q13501 [2]) [µM] | koff (p62-D3-GST, Q13501 [2]) [s⁻¹] | kon (p62-D3-GST, Q13501 [2]) [M⁻¹ s⁻¹] | Kd (p62-D3-GST, Q13501 [3]) [µM] | Kd (p62-D3-GST, Q13501 [4]) [µM] | fold binding force against N-recognins containing a URB box (p62-D3-GST, Q13501 [3]) [times]
FIFSTIEGRTY (not fully specified) [F11 peptide (biotin-labeled X-peptide with N-terminal Phe)] | 5 | 3.44 | 0.0019 | 550 | 3.4 |  | 
RIFSTIEGRTYK (not fully specified) [R11 peptide (biotin-labeled X-peptide with N-terminal Arg)] | > 40 | 0.044 | 0.0005 | 12300 |  | 0.04 | 50
